Laboratory results: article PMC4604457
pEC50: −log10 of the molar value.

Tests used:
[1] = biological target: N-MBP-ORF3-A647 (not stated | Hepatitis E virus genotype 1) (UniProt O90299); experiment: MST
[2] = biological target: N-MBP-ORF3-A647 (not stated | Hepatitis E virus genotype 1) (UniProt O90299); experiment: MST; as a7 but at pH 6.0 (pH series), 30 °C
[3] = biological target: N-MBP-ORF3-A647 (not stated | Hepatitis E virus genotype 1) (UniProt O90299); experiment: MST; as a7 but at 35 °C (temperature series), pH 7
[4] = biological target: N-MBP-ORF3-A647 (not stated | Hepatitis E virus genotype 1) (UniProt O90299); experiment: MST; as a7 but at 41 °C (temperature series), pH 7
[5] = biological target: N-MBP-ORF3-A647 (not stated | Hepatitis E virus genotype 1) (UniProt O90299); experiment: MST; pH 7
[6] = biological target: N-MBP-ORF3-A647 (not stated | Hepatitis E virus genotype 1) (UniProt O90299); experiment: MST; as a7 but at 37 °C (temperature series), pH 7
[7] = biological target: N-MBP-ORF3-A647 (not stated | Hepatitis E virus genotype 1) (UniProt O90299); experiment: MST; as a7 but at pH 8.0 (pH series), 30 °C

## N-MBP-Hel (domain or fragment)
[1]
  pEC50: 7.06

## N-MBP-Met (domain or fragment)
[1]
  pEC50: 7.47

## N-MBP-Plp (domain or fragment)
[1]
  pEC50: 9.52
[2]
  pEC50: 7.72
[3]
  pEC50: 8.55
[4]
  pEC50: 7.72
[5]
  pEC50: 8.82
[6]
  pEC50: 7.80
[7]
  pEC50: 8.22

## N-MBP-Pvx (domain or fragment)
[1]
  pEC50: 8.80

## N-MBP-X (domain or fragment)
[1]
  pEC50: 8.25
